The record followed here is patent US20260167721A1 (ABLEXIS, published 2026).

In assay [1] the target is T1, human CD3 (TCR/CD3 complex on the cell surface) (human, UniProt P07766 23-207; P04234 22-171; P09693 23-182).
T1 construct: whole, on cells; Native CD3 on human Pan-T cells or Jurkat wild-type cells; also called CD3 on Pan-T cells; CD3 on Jurkat WT cells
Description: flow cytometry, Pan-T cells, 1 ug/mL. On the technique in general: A flow cytometer gives signals particle by particle.

The target of assay [2] is T1, human CD3 (TCR/CD3 complex on the cell …). In words: flow cytometry, Pan-T cells, 10 ug/mL.
The target is the same in assay [3]. In words: flow cytometry, Jurkat WT cells, 1 ug/mL.
Assay [4] shares this target. Description: flow cytometry, Jurkat WT cells, 10 ug/mL.
Assay [5] has the same target. Description: flow cytometry, Jurkat WT gMFI over Jurkat KO gMFI, 1 ug/mL.
Assay [6] shares this target. Description: flow cytometry, Jurkat WT gMFI over Jurkat KO gMFI, 10 ug/mL.

T1 sequence (P07766 23-207, chain 1 of 3): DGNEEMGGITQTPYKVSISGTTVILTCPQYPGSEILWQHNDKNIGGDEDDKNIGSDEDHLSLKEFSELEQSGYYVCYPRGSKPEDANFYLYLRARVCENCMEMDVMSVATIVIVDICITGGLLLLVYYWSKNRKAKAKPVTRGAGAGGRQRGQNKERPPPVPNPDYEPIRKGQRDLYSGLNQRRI
T1 sequence (P04234 22-171, chain 2 of 3): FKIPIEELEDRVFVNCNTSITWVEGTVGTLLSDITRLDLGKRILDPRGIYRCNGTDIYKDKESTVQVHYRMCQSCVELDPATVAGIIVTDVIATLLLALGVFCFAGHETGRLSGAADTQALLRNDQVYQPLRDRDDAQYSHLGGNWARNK
T1 sequence (P09693 23-182, chain 3 of 3): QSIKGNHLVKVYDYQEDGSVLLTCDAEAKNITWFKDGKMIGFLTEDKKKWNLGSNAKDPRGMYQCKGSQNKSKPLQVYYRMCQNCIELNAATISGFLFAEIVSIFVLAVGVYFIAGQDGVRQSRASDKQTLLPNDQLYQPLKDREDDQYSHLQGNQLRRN

B1: CD3 × CD33-BspAb96 (bispecific antibody)
chain 1: SYELTQPPSVSVSPGQTARITCSGDALPKKYAYWYQQKSGQAPVLVIYEDSKRPSGIPERFSGSSSGTMATLTISGAQVEDEADYYCYSTDSSGNHSWVFGCGTKLTVLGGGGSGGGGSGGGGSGGGGSEVQLVESGGGLVKPGGSLRLSCAASGFTFSSYSMNWVRQAPGKCLEWVSSVNSRGSYIYYADSVKGRFTISRDNAKDSLYLQMNSLRADDTAVYYCARDRRELLLDYWGQGTLVTVSSDKTHTCPPCPAPEFEGGPSVFLFPPKPKDTLMISRTPEVTCVVVDVSHEDPEVKFNWYVDGVEVHNAKTKPREEQYNSTYRVVSVLTVLHQDWLNGKEYKCKVSNKALPASIEKTISKAKGQPREPQVYTLPPCREEMTKNQVSLWCLVKGFYPSDIAVEWESNGQPENNYKTTPPVLDSDGSFFLYSKLTVDKSRWQQGNVFSCSVMHEALHNHYTQKSLSLSPGK
chain 2: EVQLVQSGAEVKKPGSSVKVSCKASGYTITDSNIHWVRQAPGQSLEWIGYIYPYNGGTDYNQKFKNRATLTVDNPTNTAYMELSSLRSEDTAFYYCVNGNPWLAYWGQGTLVTVSSASTKGPSVFPLAPSSKSTSGGTAALGCLVKDYFPEPVTVSWNSGALTSGVHTFPAVLQSSGLYSLSSVVTVPSSSLGTQTYICNVNHKPSNTKVDKRVEPKSCDKTHTCPPCPAPEFEGGPSVFLFPPKPKDTLMISRTPEVTCVVVDVSHEDPEVKFNWYVDGVEVHNAKTKPREEQYNSTYRVVSVLTVLHQDWLNGKEYKCKVSNKALPASIEKTISKAKGQPREPQVCTLPPSREEMTKNQVSLSCAVKGFYPSDIAVEWESNGQPENNYKTTPPVLDSDGSFFLVSKLTVDKSRWQQGNVFSCSVMHEALHNRFTQKSLSLSPGK
chain 3: DIQLTQSPSTLSASVGDRVTITCRASESLDNYGIRFLTWFQQKPGKAPKLLMYAASNQGSGVPSRFSGSGSGTEFTLTISSLQPDDFATYYCQQTKEVPWSFGQGTKVEVKRTVAAPSVFIFPPSDEQLKSGTASVVCLLNNFYPREAKVQWKVDNALQSGNSQESVTEQDSKDSTYSLSSTLTLSKADYEKHKVYACEVTHQGLSSPVTKSFNRGEC
For the molecule B1, the “% Positive” value in assay [1] stood at 8.2%; in assay [2] it was 95.8%. Further, the gMFI in assay [1] stood at 3700 gMFI; in assay [2] it was 17900 gMFI; in assay [3], 2370 gMFI; in assay [4] it was 7470 gMFI. The “Jurkat WT/KO (Fold)” value in assay [5] was determined as 1.1 fold; in assay [6] it was 3.5 fold.

B2: CD3 × CD33-BspAb98 (bispecific antibody)
scFv-Fc: NFMLTQPHSVSESPGKTVTISCTRSSGSIASNYVQWYQQRPGSSPTTVIYEDNQRPSGVPDRFSGSIDSSSNSASLTISGLKTEDEADYYCQSYDSSNRVFGCGTKLTVLGGGGSGGGGSGGGGSGGGGSEVHLVESGGGLVKPGGSLRLSCAASGFTFSRYSMNWVRQAPGKCLEWVSSISRSSSYIYYADSVKGRFTISRDNAKNSLYLQMNSLRAEDTAVYYCAREPRTLGMDYWGQGILVTVSSGGGGSDKTHTCPPCPAPEFEGGPSVFLFPPKPKDTLMISRTPEVTCVVVDVSHEDPEVKFNWYVDGVEVHNAKTKPREEQYNSTYRVVSVLTVLHQDWLNGKEYKCKVSNKALPASIEKTISKAKGQPREPQVYTLPPCREEMTKNQVSLWCLVKGFYPSDIAVEWESNGQPENNYKTTPPVLDSDGSFFLYSKLTVDKSRWQQGNVFSCSVMHEALHNHYTQKSLSLSPGK
heavy: B1 chain 2
light: B1 chain 3
notes: KiH heterodimer
In the case of B2, the “% Positive” value in assay [1] was 99.8%; in assay [2] it was 99.6%. The gMFI is 197000 gMFI in assay [1], 278000 gMFI in assay [2], 43500 gMFI in assay [3] and 47700 gMFI in assay [4]. For the same molecule, the “Jurkat WT/KO (Fold)” value is 11.2 fold in assay [5] and 12.7 fold in assay [6].

B3: CD3 × CD33-BspAb99 (bispecific antibody)
scFv-Fc: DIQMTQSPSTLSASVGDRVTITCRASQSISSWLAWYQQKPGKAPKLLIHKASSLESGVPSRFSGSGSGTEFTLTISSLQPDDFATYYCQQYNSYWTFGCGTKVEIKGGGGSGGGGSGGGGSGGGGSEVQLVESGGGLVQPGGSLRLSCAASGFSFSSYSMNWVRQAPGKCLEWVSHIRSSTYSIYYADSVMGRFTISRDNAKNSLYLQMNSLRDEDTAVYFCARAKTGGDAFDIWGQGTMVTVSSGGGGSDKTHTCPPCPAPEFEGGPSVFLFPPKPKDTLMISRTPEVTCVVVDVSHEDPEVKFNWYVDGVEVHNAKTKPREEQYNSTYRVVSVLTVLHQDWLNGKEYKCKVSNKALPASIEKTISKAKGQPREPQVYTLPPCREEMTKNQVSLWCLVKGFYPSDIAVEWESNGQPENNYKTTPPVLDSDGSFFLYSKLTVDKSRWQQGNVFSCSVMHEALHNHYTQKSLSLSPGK
heavy: B1 chain 2
light: B1 chain 3
notes: KiH heterodimer
With B3, the “% Positive” value turned out to be 1.2% in assay [1] and 1.5% in assay [2]. The gMFI came out at 1810 gMFI in assay [1], 1830 gMFI in assay [2], 1660 gMFI in assay [3] and 1670 gMFI in assay [4]. For the same molecule, the “Jurkat WT/KO (Fold)” value in assay [5] stood at 0.9 fold; in assay [6] it was 1 fold.

B4: CD3 × CD33-BspAb97 (bispecific antibody)
chain 1: SYELTQPPSVSVSPGQTARITCSGDALPKKYAYWYQQKSGQAPVLVIYEDSKRPSGIPERFSGSSSGTMATLTISGAQVEDEADYYCYSTDSSGNHWVFGCGTKLTVLGGGGSGGGGSGGGGSGGGGSEVQLVESGGGLVKPGGSLRLSCAASGFTFSNYYMNWVRQAPGKCLERVSSISSSSNYIYYADSVKGRFTISRDNAKNSLYLQMNSLRAEDTAVYYCARDRRELPLDYWGQGTVVTVSSDKTHTCPPCPAPEFEGGPSVFLFPPKPKDTLMISRTPEVTCVVVDVSHEDPEVKFNWYVDGVEVHNAKTKPREEQYNSTYRVVSVLTVLHQDWLNGKEYKCKVSNKALPASIEKTISKAKGQPREPQVYTLPPCREEMTKNQVSLWCLVKGFYPSDIAVEWESNGQPENNYKTTPPVLDSDGSFFLYSKLTVDKSRWQQGNVFSCSVMHEALHNHYTQKSLSLSPGK
chain 2: B1 chain 2
chain 3: B1 chain 3
With B4, the figures for the “% Positive” value in assay [1] and in assay [2] were 66.3% and 98.5%, respectively. In addition, the gMFI in assay [1] turned out to be 9270 gMFI; in assay [2] it was 53000 gMFI; in assay [3], 3890 gMFI; in assay [4], 8450 gMFI. For the same molecule, the entries for the “Jurkat WT/KO (Fold)” value in assay [5] and in assay [6] were 1.7 fold and 3.7 fold, respectively.

B5: CD3 × CD33-BspAb101 (bispecific antibody)
scFv-Fc: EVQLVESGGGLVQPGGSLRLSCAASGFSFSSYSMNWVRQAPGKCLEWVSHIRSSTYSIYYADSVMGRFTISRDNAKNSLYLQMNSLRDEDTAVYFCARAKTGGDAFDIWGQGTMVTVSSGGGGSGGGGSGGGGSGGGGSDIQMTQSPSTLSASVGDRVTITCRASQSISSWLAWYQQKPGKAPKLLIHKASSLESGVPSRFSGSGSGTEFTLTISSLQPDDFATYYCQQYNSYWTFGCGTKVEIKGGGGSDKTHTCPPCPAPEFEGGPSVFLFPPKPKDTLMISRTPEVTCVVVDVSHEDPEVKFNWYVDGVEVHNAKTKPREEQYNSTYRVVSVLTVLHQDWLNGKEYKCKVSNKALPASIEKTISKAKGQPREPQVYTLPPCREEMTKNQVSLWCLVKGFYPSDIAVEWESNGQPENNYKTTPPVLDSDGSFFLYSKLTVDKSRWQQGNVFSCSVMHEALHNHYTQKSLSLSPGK
heavy: B1 chain 2
light: B1 chain 3
notes: KiH heterodimer
On to B5, for which the “% Positive” value in assay [1] was determined as 1.8%; in assay [2], 1.6%. Also, the gMFI in assay [1] turned out to be 1910 gMFI; in assay [2], 2150 gMFI; in assay [3], 1780 gMFI; in assay [4] it was 1940 gMFI. The “Jurkat WT/KO (Fold)” value in assay [5] is 0.8 fold; in assay [6], 0.9 fold.

B6: CD3 × CD33-BspAb100 (bispecific antibody)
scFv-Fc: EVQLVESGGGLVKPGGSLRLSCAASGFTFSNYYMNWVRQAPGKCLERVSSISSSSNYIYYADSVKGRFTISRDNAKNSLYLQMNSLRAEDTAVYYCARDRRELPLDYWGQGTVVTVSSGGGGSGGGGSGGGGSGGGGSSYELTQPPSVSVSPGQTARITCSGDALPKKYAYWYQQKSGQAPVLVIYEDSKRPSGIPERFSGSSSGTMATLTISGAQVEDEADYYCYSTDSSGNHWVFGCGTKLTVLGGGGSDKTHTCPPCPAPEFEGGPSVFLFPPKPKDTLMISRTPEVTCVVVDVSHEDPEVKFNWYVDGVEVHNAKTKPREEQYNSTYRVVSVLTVLHQDWLNGKEYKCKVSNKALPASIEKTISKAKGQPREPQVYTLPPCREEMTKNQVSLWCLVKGFYPSDIAVEWESNGQPENNYKTTPPVLDSDGSFFLYSKLTVDKSRWQQGNVFSCSVMHEALHNHYTQKSLSLSPGK
heavy: B1 chain 2
light: B1 chain 3
notes: KiH heterodimer
Regarding B6, the “% Positive” value in assay [1] and in assay [2] was 99.5% in each case. For the same molecule, the gMFI in assay [1] was found to be 240000 gMFI; in assay [2], 348000 gMFI; in assay [3] it was 30000 gMFI; in assay [4], 39600 gMFI. Also, the “Jurkat WT/KO (Fold)” value in assay [5] was 9.3 fold; in assay [6], 11.9 fold.
